The series in a line: soluble on expression in E. coli; label from the status in PepcDB or PDB records.
As for “MSLASVDPYEHLNAWVSAIETSGVLVLATRGGKVAIDEMRGMCLYFDELPVIVLNGSDHPRPRLFSLLHEFVHVVLHTEGLCDVIADAHPSTQDRSLEARCNAIAAAVLMPADVVRARPEVIVRSETPSSWDYESLRPVAAHFGVSAEAFLRRLSTLGIVPVEVYRQRRAEFIAAHEDEAERARSAGGGNWYRNTVRDLGKGYVRAVTDAHRRRVIDSNTAAIYLDAKVSQIPKLAESAELRSVEGHHHHHH”, the “soluble on expression in E. coli” value was “not soluble”.

On to “MGSDKIHHHHHHMQEDISRKSPMLSNIKSWYRRRIIENHSVPDDIWQNAIARLRFLQALEAVELERLRECVVLFLHVKQISGAHGLVITDEMRVLIAAQACILILNLDLDYYDGWVEIIVYPGEFIRDYEYVDEDGIVHHAVEPASGESWLGGPVILSWEDAVAAVSGTEISQGYNVVIHEFAHKLDMLNGEANGFPPIHPDMSRQAWSEAFSKAYADFCRSIDAGEMMEIDLYAAESPAEFFAVISEAFFEMPISVRIHFPAVYEQLALFYRQDPAQRRSEP”, for which the “soluble on expression in E. coli” value was “not soluble”.

For “MGEKEKEFAVIGLGRFGGSICRELAQLGMEVMAIDSDEDKINEFANIASHAVIADSTDEMVLKSLGIRNFDHVVVAIGDNLNSSILTTLILKELGVKNITVKAQNDYHEKVLSKIGADHIVHPERDMGKRIANNIASSNVLDYLELSDEHSIVEIIANKKIDGHSLIELDIRAKFGLNIVAIKRGKEVIVSPRATENIQAGDILIVIGHDDEVDRFKHFLR”, the “soluble on expression in E. coli” value was “not soluble”.

“MGHHHHHHGGHMSLKVFIDPDGDIEEIKEAFRLINPELYERLLKIDGSDEFFRYMVKPLRVSVRVNTLKAEVDEVVENLKELITGRVPWCEEGFYLSIDEFSRIPEHQLGLIFSQEAASMIPPLVMELEPKMTVLDIAASPGAKTTQIAQYLQNEGCIVANDVKHSRINILISNLQRCGVLIAKVTVKDGRYFGRFRNRFDAVLVDAPCSNMGMIRKNYRNIRLWKMRDCYGLSKLQKSLLMAAYKAVKPGGVVVYSTCTLEPIENEEVVDYILRNTDAEIEEVNLPVKGVEPFTKFDGKEYSEEVRKCLRLHPQSSDTEGFFVAKLRKPEGGS”: the “soluble on expression in E. coli” value was “soluble”.

Turning to “MFRRLGEKTTLYRAESPSQNSLASHHNSEVSLPSVDYSQEDRHSCNTLIGDEWSQNGDVIIQPLQKPSNTPTTQYERIITRREIANTESDLCKKLSLIVDLVSDFANDANRLYEGADELLKELRTKIRVYIYFLDVEMADVEKLLRFNVDRSTICDERIDWLLHFTKCHKEMRRVLNELSEEVCEDLESCLEMRAKGVIGKKPSSIILSTLSGMRNGMMTASKLLGCLPRQRA”, the “soluble on expression in E. coli” value is given as “not soluble”.

In the case of “MSLEKVDFIKEDLIFSLLEKGKITDRNEIREILAKARECKGISLGEVAKLLYLEDEELLEELYDVAKYIKNKIYGKRVVLFAPLYTSNECTNNCLYCGFRHDNKELHRKTLSLEEIVEEAKAIERQGHKRLLLICGEDPRKTNVKHFTDAMEAIYKSTDIRRINVEAAPMTVEDYRELKKAGIGTYVIFQETYHRETYRIMHPVGKKANYDWRITAIDRAFEGGIDDVGVGALFGLYDYRFEVLGLLMHCMHFEEKYGVGPHTISVPRLRPALGAPLKEIPYKVTDKDFKKIVAIFRIAVPYTGIILSTRERAEFRDELLSVGVSQISAGSKTNPGGYQEDDDHADQFEISDNRSLPKVMETICQQGYIPSFCTACYRRCRTGEHFMEYAKAGDIHEFCQPNAILTFKENLMDYADEPLRKMGEEVILKALEEIEDEKMKTLTIAKLEEIEKGKRDIYFEGHHHHHH”, the “soluble on expression in E. coli” value is “soluble”.

Turning to “MSNPVTITEAAALHIKDMMKEHEEENAFLRVGVKGGGCSGLSYGMGFEHEKSESDSVFDQHGITVLVDKESLDIMNGTVIDYKQSMLGGGFTIDNPNAIASCGCGSSFRTATNAGKPEEC”, the “soluble on expression in E. coli” value is recorded as “soluble”.

“GTIPKPTLWAEPDSVITQGSPVTLSCQGSLEAQEYRLYREKKSASWITRIRPELVKNGQFHIPSITWEHTGRYGCQYYSRARWSELSDPLVLVMTGAYPKPTLSAQPSPVVTSGGRVTLQCESQVAFGGFILCKEGEDEHPQCLNSQPHARGSSRAIFSVGPVSPNRRWSHRCYGYDLNSPYVWSSPSDLLELLVPG”: the “soluble on expression in E. coli” value was “soluble”.

On to “MGSDKIHHHHHHMDIRVLRYFVVIAQEQNISRAATLLNVSQPALSRQIADLEDELGTKLFTRAHRHIQLTQEGHYLLERALQIIGLVDKTTYNLQKQDVVSGTLDIGAGESVGIMPVMEAAQQIMRQYPDVRVNLRSADAEPILADLDAGILEFGIIMGNRPLNNYNTLVLPAKNHWCAIMRADEPLAQQKEIRPIDLVGRPLITSRQAYKHGLFQKWSNTLYDQLNFVGTFNLAFNGSLLVKTGAAIALLYDQLVDVSPTSGLVARPLNPDMSEANTLIWSKNRNLPNLNRLFLDTLQKNLAQQGGSDA”, for which the “soluble on expression in E. coli” value is “not soluble”.

“SMGAEPGRPARLDQLLDMPAAGLAVQLRHAWNPEDRSLNVFVKDDDRLTFHRHPVAQSTDGIRGKVGHARGLHAWQINWPARQRGTHAVVGVATARAPLHSVGYTALVGSDAESWGWDLGRSRLYHDGKNQPGVAYPAFLGPDEAFALPDSLLVVLDMDEGTLSFIVDGQYLGVAFRGLKGKKLYPVVSAVWGHCEVTMRYINGLDPE”: the “soluble on expression in E. coli” value is recorded as “soluble”.

Take “NSESKSTPKRLHVSNIPFRFRDPDLRQMFGQFGKILDVEIIFNERGSKGFGFVTFENSADADRAREKLHGTVVEGRKIEVNNATARVMTN”: the “soluble on expression in E. coli” value is recorded as “soluble”.

For the sequence “MKTSANIATSASGNGLADVLERVLDKGVVIAGDISVSIASTELLNIKIRLLISSVERAKEIGINWWESDPYFSSQNNSLVQANEKLLERVASLESEIKALRSN”, the “soluble on expression in E. coli” value is listed as “not soluble”.

Take “MTLTKGSFTYSSGEEYRGEWKEGRRHGFGQLVFADGGTYLGHFENGLFNGFGVLTFSDGSRYEGEFSQGKFNGVGVFIRYDNMTFEGEFKNGRVDGFGLLTFPDGSHGIPRNEGLFENNKLLRREKCSAVVQRAQSASKSARNLTA”: the “soluble on expression in E. coli” value is “soluble”.

As for “MSLSDSENGGSKTAILCNDLADSYLESYPTVTLEDGVTRTYHNGVYQECRNKYIINNRMMDIAEDMGIVLTPKQIQDALEIVRNKTPFTESKTPINLIPVGNGVLDINTMELSDYSPETVLLTKFPRDYNPSAATPSKFMEMLNTTFDGSEEQIKLVQEMFGYCFLRSYFLEVIFFLIGNGRNGKTTLLSILGALLGGEESGHISSLSFKDLSEPKNENMLCDLYGRYANICGDTGKHKIKETDYIKKVTGNDFVRARKLYKDSFNFKSFAKVILAFNQLPEVDDFSDGFKRRIRIIEFNHKFEDGAGANKNIEAEITGDEEEMEGIFLWAMEGLKRILENNSFSDKRSIVSRGMEYARKSNPMHYFVRECIVESPGHFVNKADLIEKYVEYAEYNKMPQLTPQAFKKGLIAECTDISINTFEKRDQTKTGRPFGFMHIDIDLESWKKHTGKADNASPVEPKEDSKQTQFKELEIQIATTDEEIRKVAEDMASTASEGHHHHHH”, the “soluble on expression in E. coli” value is “soluble”.

As for “MTTLIISDLHLDPLRPVVTELFLRFLREQVSGADALYILGDLFEIWIGDDMPSEVADMVVAALRTHADAGTPLYFMPGNRDFLVGADYAARAGFRILPDPCVVDLYGEPTLLLHGDLLCTDDIAYQAFRAQTRDPEFIAQFLTQTLSARLAFAQQARLASHAHQSGLKQENDSTQFEKITDVVPADVAAMFACYGVNRMIHGHTHRPALHMLQVAECACTRVVLGDWYQQGSVLCVDADGLVLEQLLLP”, the “soluble on expression in E. coli” value is on record as “not soluble”.

For the sequence “MSLTAYKRVLLKLSGESLMGAQQYGIDPNRLADYASDIKEACAMGVQIGIVIGGGNIFRGVSGAAKGFDRVKGDQMGMLATVINSLALSSALEGVGVKTKVLTAVRMEPIGEFYNKWHAIELLEQGYVTIFSCGTGNPFFTTDTGSSLRGIEIEADAMLKGTRVDGIYTADPEKDPSATKFDRITYDEIYARGLKVMDLTATAMCMENNLPIVVFDMDTPGNLLKVLRGEKIGTYVSNTSAEGHHHHHH”, the “soluble on expression in E. coli” value is given as “soluble”.

On to “SMANHLVKPDNRNCKRPRELESPVPDSPQLSSLGKSDSSFSEISGLFYKDEALEKDLNDVSKEINLMLSTYAKLLSERAAVDASYIDEIDELFKEANAIENFLIQKREFLRQRFTVIANTLHR”, for which the “soluble on expression in E. coli” value is listed as “soluble”.

For the origin of these results see the DeepSol protein solubility set.
